Patent publication US10202584B2, “Red-shifted luciferase-luciferin pairs for enhanced bioluminescence” (The Regents of the University of California, priority 2016, dated 2019)

Assays:
[1] = substrate: O=c1c(Cc2ccccc2)nc2c(-c3ccccc3)[nH]c(-c3ccccc3)cn1-2; test: purified protein, by the assay type; settings: other: apparent, 100 pM enzyme, substrate 0.78 to 50 μM, assay buffer pH 6.0, mean ± s.d., n = 3, 37.0 °C
[2] = substrate: O=c1c(Cc2ccccc2)nc2c([Se]c3ccccc3)[nH]c(-c3ccccc3)cn1-2; test: purified protein, by the assay type; settings: other: apparent, 100 pM enzyme, substrate 0.78 to 50 μM, assay buffer pH 6.0, mean ± s.d., n = 3, 37.0 °C
Protocol: FIG. 8 is a panel of graphs showing substrate titrations with pure enzymes to determine apparent Michaelis constants (Km). Titrations using new luciferases (8a) and Fluc (8b) are shown. The final concentrations of all enzymes were 100 pM. Substrate concentrations varied from 0.78 to 50 μM, and peak bioluminescence intensities at individual substrate concentrations were used to fit the Michaelis-Menten equation. Data are shown as mean and s.d. of three independent experiments.
Luciferases were expressed and purified as His6-tagged fusion proteins (FIG. 18).
A Synergy Mx Microplate Reader (BioTek) was used for all in vitro bioluminescence characterizations. For kinetics measurements, no emission filter or monochromator was used. 50 μL of luciferin substrates in the assay buffer (1 mM CDTA, 0.5% Tergitol NP-40, 0.05% Antifoam 204, 150 mM KCl, 100 mM IVIES pH 6.0, 1 mM DTT, and 35 mM thiourea) was injected into the wells of white 96-well plates containing 50 μL of pure enzymes in the same assay buffer. The final concentrations of all enzymes and substrates were 100 pM and 30 μM, respectively. Measurements were taken every 60 s post-injection (1-s integration and 10-s shaking during intervals). FLuc bioluminescence assays were performed similarly, except the assay buffer contained 30 mM MOPS, pH 7.0, 1.5 mM ATP, and 5 mM MgSO4.

Protein | Km [1] | kcat [1] | Km [2] | kcat [2]
teLuc, NanoLuc variant D19S/D85N/C164H, SEQ ID NO: 2 (Oplophorus gracilirostris; … (protein) MVFTLEDFVGDWRQTAGYNLSQVLEQGGVSSLFQNLGVSVTPIQRIVLSGENGLKIDIHVIIPYEGLSGDQMGQIEKIFKVVYPVDNHHFKVILHYGTLVIDGVTPNMIDYFGRPYEGIAVFDGKKITVTGTLWNGNKIIDERLINPDGSLLFRVTINGVTGWRLHERILA | 10.2 ± 0.4 µM | 88.1 ± 0.1 s⁻¹ |  | 
yeLuc0.8, NanoLuc variant L18Q/D19A/S28T/C164S, SEQ ID NO: 3 (Oplophorus gracilirostris; … (protein) MVFTLEDFVGDWRQTAGYNQAQVLEQGGVTSLFQNLGVSVTPIQRIVLSGENGLKIDIHVIIPYEGLSGDQMGQIEKIFKVVYPVDDHHFKVILHYGTLVIDGVTPNMIDYFGRPYEGIAVFDGKKITVTGTLWNGNKIIDERLINPDGSLLFRVTINGVTGWRLSERILA |  |  | 6.3 ± 0.5 µM | 
yeLuc, NanoLuc variant yeLuc0.8-F1L/A14D/V27L/Q69R/R112Q/L142R (yeLuc0.8 = NanoLuc-L18Q/D19A/S28T/C164S), SEQ ID NO: 4 (Oplophorus gracilirostris; … (protein) MVLTLEDFVGDWRQTDGYNQAQVLEQGGLTSLFQNLGVSVTPIQRIVLSGENGLKIDIHVIIPYEGLSGDRMGQIEKIFKVVYPVDDHHFKVILHYGTLVIDGVTPNMIDYFGQPYEGIAVFDGKKITVTGTLWNGNKIIDERRINPDGSLLFRVTINGVTGWRLSERILA |  |  | 11.9 ± 0.9 µM | 175 ± 5 s⁻¹
Antares2 (Antares with NanoLuc replaced by teLuc, D19S/D85N/C164H; fused to CyOFP1) (Oplophorus gracilirostris; … (protein) MVFTLEDFVGDWRQTAGYNLSQVLEQGGVSSLFQNLGVSVTPIQRIVLSGENGLKIDIHVIIPYEGLSGDQMGQIEKIFKVVYPVDNHHFKVILHYGTLVIDGVTPNMIDYFGRPYEGIAVFDGKKITVTGTLWNGNKIIDERLINPDGSLLFRVTINGVTGWRLHERILA | 9.7 ± 0.2 µM | 86.1 ± 0.7 s⁻¹ |  | 
